Test results reported in patent US20260078196A1 (TJ BIOPHARMA SHANGHAI, published 2026).
Substitutions are numbered along the chain they refer to.

T1: huMUC16, AA14198-14507
T1 chain: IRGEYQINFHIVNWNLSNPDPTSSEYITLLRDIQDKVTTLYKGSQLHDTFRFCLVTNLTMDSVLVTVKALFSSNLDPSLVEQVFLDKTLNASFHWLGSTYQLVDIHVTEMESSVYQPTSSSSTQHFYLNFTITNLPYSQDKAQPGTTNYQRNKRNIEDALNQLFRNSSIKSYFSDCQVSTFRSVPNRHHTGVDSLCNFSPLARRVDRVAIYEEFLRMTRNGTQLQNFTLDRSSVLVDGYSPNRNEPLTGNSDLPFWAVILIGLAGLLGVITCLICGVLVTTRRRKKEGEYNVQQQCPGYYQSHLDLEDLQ

T2: HEK293-MUC16 (13810-14507) (human, UniProt Q8WXI7 13810-14507)
T2 construct: range 13810-14507; also called MUC16 overexpressed HEK293 cells
T2 sequence: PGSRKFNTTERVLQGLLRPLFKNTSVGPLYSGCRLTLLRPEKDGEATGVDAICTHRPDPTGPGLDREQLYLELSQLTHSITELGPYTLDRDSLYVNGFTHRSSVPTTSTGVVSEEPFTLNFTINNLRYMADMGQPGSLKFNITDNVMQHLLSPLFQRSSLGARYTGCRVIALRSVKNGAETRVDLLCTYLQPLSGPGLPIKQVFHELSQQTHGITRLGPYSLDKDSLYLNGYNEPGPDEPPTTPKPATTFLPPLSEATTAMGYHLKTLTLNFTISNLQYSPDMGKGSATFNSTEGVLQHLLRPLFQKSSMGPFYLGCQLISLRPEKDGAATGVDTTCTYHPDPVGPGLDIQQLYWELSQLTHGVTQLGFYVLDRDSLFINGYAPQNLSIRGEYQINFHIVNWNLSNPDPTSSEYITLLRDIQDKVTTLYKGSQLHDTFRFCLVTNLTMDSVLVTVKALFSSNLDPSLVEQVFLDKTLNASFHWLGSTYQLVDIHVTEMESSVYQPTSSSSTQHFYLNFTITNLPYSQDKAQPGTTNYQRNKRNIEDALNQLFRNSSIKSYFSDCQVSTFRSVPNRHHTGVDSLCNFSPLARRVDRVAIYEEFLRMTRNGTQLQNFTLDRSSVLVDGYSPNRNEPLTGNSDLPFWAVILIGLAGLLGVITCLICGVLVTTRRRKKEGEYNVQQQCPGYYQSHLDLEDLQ

T3: huMUC16, AA13789-14451
T3 construct: also called MUC16 Antigen (human MUC16 AA13789-14451)
T3 chain: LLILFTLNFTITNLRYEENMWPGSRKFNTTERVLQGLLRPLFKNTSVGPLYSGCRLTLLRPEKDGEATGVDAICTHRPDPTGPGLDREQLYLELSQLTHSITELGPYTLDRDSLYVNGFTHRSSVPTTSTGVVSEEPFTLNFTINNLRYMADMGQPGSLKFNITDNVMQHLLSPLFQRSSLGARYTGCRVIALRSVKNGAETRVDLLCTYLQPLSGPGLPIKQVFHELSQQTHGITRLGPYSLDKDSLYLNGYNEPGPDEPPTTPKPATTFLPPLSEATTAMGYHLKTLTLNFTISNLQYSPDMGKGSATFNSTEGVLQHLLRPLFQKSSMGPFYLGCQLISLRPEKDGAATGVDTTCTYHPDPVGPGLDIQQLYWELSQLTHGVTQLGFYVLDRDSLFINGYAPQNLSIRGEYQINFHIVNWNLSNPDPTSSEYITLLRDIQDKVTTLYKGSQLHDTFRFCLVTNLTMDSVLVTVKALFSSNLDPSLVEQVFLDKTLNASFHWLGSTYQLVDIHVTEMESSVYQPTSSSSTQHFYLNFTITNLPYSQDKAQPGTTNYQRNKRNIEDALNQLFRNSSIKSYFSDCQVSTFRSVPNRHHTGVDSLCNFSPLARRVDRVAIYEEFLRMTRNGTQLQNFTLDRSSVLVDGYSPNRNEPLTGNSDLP

B1: 4B-3C5 (bispecific antibody, human IgG1, kappa)
heavy: not shown
light: DIKMTQSPSSMYASLGERVSITCRASQDIYSYLSWFQQKPGKSPKTLIYRANRLVDGVPSRFSGSGSGQDYSLTISSLEYEDMGIYYCLQYDEFPYTFGGGTKLEIKRTVAAPSVFIFPPSDEQLKSGTASVVCLLNNFYPREAKVQWKVDNALQSGNSQESVTEQDSKDSTYSLSSTLTLSKADYEKHKVYACEVTHQGLSSPVTKSFNRGEC
notes: Chimeric ROR1 x 4-1BB BsAb; also called 3C5 IgG x 4-1BB VHH
B2: 4B-8F2 (bispecific antibody, human IgG1, kappa)
heavy: not shown
light: DVVMTQTPLTLSVTIGQPASISCKSSQSLLHSNGKTYLNWLLQRPGQSPNLLIYLVSKLESGVPDRFSGSGSGTDFTLKISRVEAEDLGVYYCLQATYFPYTFGSGTKLEIKRTVAAPSVFIFPPSDEQLKSGTASVVCLLNNFYPREAKVQWKVDNALQSGNSQESVTEQDSKDSTYSLSSTLTLSKADYEKHKVYACEVTHQGLSSPVTKSFNRGEC
notes: Chimeric ROR1 x 4-1BB BsAb; also called 8F2 IgG x 4-1BB VHH
B3: 4B-10C9 (second entry of Table 6A, with 9C9 VH and 9C9 VL) (bispecific antibody, human IgG1, kappa)
heavy: not shown
light: DIVLTQSPAITAASLGQKVTITCSASSSVTYMHWYQQKSGTSPKLWIYDISKLASGVPARFSGSGPGTSYSLTISTMEAEDAAIYYCQQWNYPLMTFGGGTKLEIKRTVAAPSVFIFPPSDEQLKSGTASVVCLLNNFYPREAKVQWKVDNALQSGNSQESVTEQDSKDSTYSLSSTLTLSKADYEKHKVYACEVTHQGLSSPVTKSFNRGEC
notes: Label 4B-10C9 is printed twice; this entry holds the 9C9 variable domains and is probably meant as 4B-9C9; also called 10C9 IgG x 4-1BB VHH (label as printed)
B4: C25 (antibody, V domains shown)
VH: EVQLLESGAEVKKPGSSVKVSCKASGGTFSSYAISWVRQAPGQGLEWMGGIIPIFGTANYAQKFQGRVTITADESTSTAYMELSSLRSEDTAVYYCARDSRKYYYDSSGPALWGFDAFDIWGQGTMVTVSS
VL: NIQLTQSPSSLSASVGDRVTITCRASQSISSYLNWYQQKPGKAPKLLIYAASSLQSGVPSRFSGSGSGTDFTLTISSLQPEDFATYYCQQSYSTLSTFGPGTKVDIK
notes: Anti-MUC16 mAb from a human naive Fab phage library; also called MUC16-C25
B5: C73 (antibody, V domains shown)
VH: QVQLMQSGAEVKKPGSSVKVSCKASGGTFSSYAISWVRQAPGQGLEWMGGIIPIFGTANYAQKFQGRVTITADESTSTAYMELSSLRSEDTAVYYCAREPPLSNYGDYATEQYYYGMDVWGQGTLVTVSS
VL: not shown
notes: Anti-MUC16 mAb
B6: D1 (antibody, V domains shown)
VH: QVQLVQSGAEVKKPGSSVKVSCKASGGTFSSYAISWVRQAPGQGLEWMGGIIPIFGTANYAQKFQGRVTITADESTSTAYMELSSLRSEDTAVYYCARAPMVRGVPPTPYYYYYGMDVWGQGTTVTVSS
VL: EIVLTQSPATLSLSPGERATLSCRASQSVSNYLAWYQQKPGQAPRLLIYDASNRATGIPARFSGSGSGTDFTLTISSLEPEDFAVYYCQQRSNWPSFGQGTKVEIK
notes: Anti-MUC16 mAb
B7: D20 (antibody, V domains shown)
VH: QVQLVQSGAEVKKPGSSVKVSCKASGGTFSSYAISWVRQAPGQGLEWMGGIIPIFGTANYAQKFQGRVTITADESTSTAYMELSSLRSEDTAVYYCASTPELLWFGELGGAYYFDYWGQGTLVTVSS
VL: NIQLTQSPSTLSASVGDRVTITCRASESISSWLAWYQQKPGEAPKLLIYKASTLENGVPSRFSGSGSETEFTLTISSLQPDDFATYYCQQYRSHWSSTFGPGTKVDIK
notes: Anti-MUC16 mAb
B8: D30 (antibody, V domains shown)
VH: QVQLVQSGAEVKKPGSSVKVSCKASGGTFSSYAISWVRQAPGQGLEWMGGIIPIFGTANYAQKFQGRVTITADESTSTAYMELSSLRSEDTAVYYCARANFNIYYYYYGMDVWGQGTLVTVSS
VL: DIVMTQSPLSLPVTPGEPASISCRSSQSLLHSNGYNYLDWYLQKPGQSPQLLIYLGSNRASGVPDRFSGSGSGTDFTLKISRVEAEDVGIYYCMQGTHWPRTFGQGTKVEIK
notes: Anti-MUC16 mAb
B9: D46 (antibody, V domains shown)
VH: QVQLVQSGAEVKKPGSSVKVSCKASGGTFSSYAISWVRQAPGQGLEWMGRIIPIFGIANYAQKFQGRVTITADKSTSTAYMELSSLRSEDTAVYYCAITGDYDILTGSYYYGMDVWGQGTTVTVSS
VL: NIQLTQSPSSLSASVGDRVTITCRASQGIRNDLGWYQQKPGKAPKLLIYAASSLQSGVPSRFSGSGSGTDFTLTISSLQPEDFATYYCLQDYNYPFTFGPGTKVDIK
notes: Anti-MUC16 mAb
B10: 4B-10C9 (bispecific antibody, human IgG1, kappa)
heavy: not shown
light: B2 light with T14A, S32I, N50K, Y98H
notes: also called 10C9 IgG x 4-1BB VHH
B11: 4-1BB VHH (VHH)
VHH: QVQLQESGGGLVQPGGSLRLSCAASGYTYSSNCMGWFRQAPGKGLEGVAVICTGGGSPSYADSVKGRFTISRDNAKNTLYLQMNSLRAEDTAVYYCAADLLRAGTPLSSYEFNYWGQGTLVTVSS

Assays:
[1] = molecular target: T4, 4-1BB on cells (human, UniProt Q07011 24-255); experiment: flow cytometry (gMFI) on HEK293-h4-1BB cells
T4 construct: Species is stated as human for section 2.2 as a whole, not for each cell line; also called HEK293 cells expressing 4-1BB; 4-1BB overexpressed HEK293 cell
T4 sequence (Q07011 24-255): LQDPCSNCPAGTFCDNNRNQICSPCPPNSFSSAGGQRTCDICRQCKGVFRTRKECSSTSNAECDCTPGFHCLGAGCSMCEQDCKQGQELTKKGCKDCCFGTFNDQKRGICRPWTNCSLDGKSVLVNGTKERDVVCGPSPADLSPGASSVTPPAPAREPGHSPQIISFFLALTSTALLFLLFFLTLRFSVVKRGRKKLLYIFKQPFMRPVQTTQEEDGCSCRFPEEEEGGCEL

[2] = molecular target: T5, ROR1 on cells (UniProt Q01973 30-937); experiment: flow cytometry (gMFI) on A549 cells
T5 construct: whole, on cells; also called ROR1 endogenous expressed tumor cell A549; ROR1-positive tumor cell lines

[3] = molecular target: T1, huMUC16, AA14198-14507; experiment: binding ELISA on huMUC16 AA14198-14507
[4] = molecular target: T6, human MUC16 on cells (human, UniProt Q8WXI7 1-14507); experiment: flow cytometry (MFI GeoMean) on SNU216 cells, nM is the unit of the x axis Log10[Ab] (nM)
T6 construct: whole, on cells; also called huMUC16; MUC16 on OVCAR3 and SNU216 cells

[5] = molecular target: T7, human MUC16 (human); experiment: binding kinetics, sensorgrams in RU in FIG. 14B, model printed: Kinetics 1:1; form of the MUC16 antigen not given
T7 construct: also called MUC16 antigen of the kinetic assay

[6] = molecular target: T6, human MUC16 on cells; experiment: flow cytometry (MFI GeoMean) on OVCAR3 cells, nM is the unit of the x axis Log10[Ab] (nM)
[7] = molecular target: T6, human MUC16 on cells; experiment: flow cytometry (GMFI) on OVCAR3 cells, nM is the unit of the x axis Log10[Ab] (nM)
[8] = molecular target: T2, HEK293-MUC16 (13810-14507); experiment: flow cytometry (MFI GeoMean) on HEK293-MUC16 (13810-14507) cells, nM is the unit of the x axis Log10[Ab] (nM)
[9] = molecular target: T3, huMUC16, AA13789-14451; experiment: binding ELISA on huMUC16 AA13789-14451
[10] = molecular target: T6, human MUC16 on cells; experiment: flow cytometry (GMFI) on OVCAR3 cells, nM is the unit of the x axis Log10[Ab] (nM); curve without upper plateau

Binder	EC50 (read off the curve) [1] [nM]	EC50 (read off the curve) [2] [nM]	binding result [3]	binding result [9]	other results
B1	~0.1	~0.08			
B2	~0.2	~0.03			
B3	~0.3	~0.2			
B4			no binding (tested: 100 nM)	binds	EC50 [4]: 0.0978 nM; Kd [5]: 26.9 nM; koff [5]: 0.00697 s⁻¹; kon [5]: 260000 M⁻¹ s⁻¹; EC50 [6]: 0.242 nM; EC50 [7]: 0.179 nM; EC50 [8]: 0.156 nM
B5			no binding (tested: 100 nM)	binds	EC50 [10]: 50.1 nM
B6			no binding (tested: 100 nM)	binds	EC50 [10]: 27.6 nM
B7			no binding (tested: 100 nM)	binds	EC50 [10]: 14.1 nM
B8			no binding (tested: 100 nM)	binds	EC50 [4]: 0.125 nM; EC50 [6]: 0.38 nM; EC50 [7]: 0.389 nM; EC50 [8]: 0.277 nM
B9			no binding (tested: 100 nM)	binds	EC50 [7]: 0.347 nM
B10	~0.3	~0.3			
B11	~0.2				
